T1: VLP-hCLDN6 (human) (UniProt P56747)
T1 sequence: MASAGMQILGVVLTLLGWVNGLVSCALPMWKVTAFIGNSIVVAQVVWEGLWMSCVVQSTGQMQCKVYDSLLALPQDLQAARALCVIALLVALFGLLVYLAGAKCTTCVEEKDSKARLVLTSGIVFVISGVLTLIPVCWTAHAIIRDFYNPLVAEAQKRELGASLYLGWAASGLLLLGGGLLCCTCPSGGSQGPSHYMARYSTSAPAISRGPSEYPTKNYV

T2: VLP-hCLDN6 (human, UniProt P56747 1-220)
T2 construct: also called VLP-CLDN6; AT-003-ag1
T2 sequence: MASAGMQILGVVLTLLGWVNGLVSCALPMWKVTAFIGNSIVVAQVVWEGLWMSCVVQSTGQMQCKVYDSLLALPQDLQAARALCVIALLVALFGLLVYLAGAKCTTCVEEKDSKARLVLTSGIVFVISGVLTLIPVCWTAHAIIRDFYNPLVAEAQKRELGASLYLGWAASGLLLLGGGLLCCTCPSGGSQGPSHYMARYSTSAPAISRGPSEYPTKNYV


Columns and labels:
VLP-hCLDN6 (human) [1] = biological target: T1, VLP-hCLDN6 (human); experiment: ELISA, coated VLP-hCLDN6, 10 ul antibody sample, HRP-Protein A
VLP-hCLDN6 (human) [2] = biological target: T1, VLP-hCLDN6 (human); experiment: ELISA, coated VLP-hCLDN6, 100 ul antibody sample, HRP-Protein A
VLP-hCLDN6 (human) [3] = biological target: T1, VLP-hCLDN6 (human); experiment: ELISA, coated VLP-hCLDN6, 10 ul antibody sample (second well), HRP-Protein A
VLP-hCLDN6 (human) [4] = biological target: T1, VLP-hCLDN6 (human); experiment: ELISA, coated VLP-hCLDN6, 100 ul antibody sample (second well), HRP-Protein A
VLP-hCLDN6 [5] = biological target: T2, VLP-hCLDN6; experiment: ELISA on coated VLP-hCLDN6
VLP-hCLDN6 [6] = biological target: T2, VLP-hCLDN6; experiment: ELISA, VLP-CLDN6 coated 400 ng/well, 4-fold serial dilution, HRP goat anti-human IgG Fc

Binder	EC50 (VLP-hCLDN6 [5])	also measured
humanized antibody hAb-24 (antibody, V domains shown) VH: EVKLVESGGGLVKPGGSLRLSCAASGFTFNSYTMSWVRQTPAKRLEWVVTISSGGGRTYYPDSVKGRFTISRDNARNTLYLQMSSLRAEDTAVYYCIRGDYRYDGFAYWGQGTLVTVSS VL: DIQMTQSPSSLSASVGDRVTITCRASENIDSYLAWYQQKPGKSPQLLVYASTLLQDGVPSRFSGSRSGTQFTLTISSLQPEDFATYYCQHYYSIPYTFGSGTKLEIK		OD450 (VLP-hCLDN6 (human) [1]): 1.45; OD450 (VLP-hCLDN6 (human) [2]): 1.94; OD450 (VLP-hCLDN6 (human) [3]): 1.34; OD450 (VLP-hCLDN6 (human) [4]): 1.87
humanized antibody hAb-29 (antibody, V domains shown, also called VH2VL4 with HC S31D) VH: EVKLVESGGGLVKPGGSLRLSCAASGFTFNDYTMSWVRQTPAKRLEWVVTISSGGGRTYYPDSVKGRFTISRDNAKNTLYLQMSSLRAEDTAVYYCIRGDYRYDGFAYWGQGTLVTVSS VL: DIQMTQSPSSLSASVGDRVTITCRASENIDSYLAWYQQKPGKSPQLLVYASTLLVDGVPSRFSGSRSGTQFSLTISSLQPEDVARYYCQHYYSIPYTFGSGTKLEIK	0.29 nM	
humanized antibody hAb-25 (antibody, V domains shown) VH: EVKLVESGGGLVKPGGSLRLSCAASGFTFNSYTMSWVRQTPAKRLEWVVTISSGGGRTYYPDSVKGRFTISRDNARNTLYLQMSSLRAEDTAVYYCIRGDYRYDGFAYWGQGTLVTVSS VL: DIQMTQSPSSLSASVGDRVTITCRASENIDSYLAWYQQKPGKSPQLLVYASTLLVDGVPSRFSGSRSGTQFSLTISSLQPEDVARYYCQHYYSIPYTFGSGTKLEIK		OD450 (VLP-hCLDN6 (human) [1]): 1.69; OD450 (VLP-hCLDN6 (human) [2]): 2.05; OD450 (VLP-hCLDN6 (human) [3]): 1.7; OD450 (VLP-hCLDN6 (human) [4]): 2.24
murine/human chimeric antibody cAb-2 (antibody, V domains shown, also called cAb-1 with S31E) VH: EVKLVESGGGLVKPGGSLKLSCAASGFTFNEYTMSWVRQTPAKRLEWVVTISSGGGRTYYPDSVKGRFTISRDNARNTLYLQMSSLRSEDTAMYYCIRGDYRYDGFAYWGQGTLVTVST VL: DIQMTQSPASLSASVGETVTITCRASENIDSYLAWYQQKQGKSPQLLVYASTLLVDGVPSRFSGSRSGTQFSLKINSLQSEDVARYYCQHYYSIPYTFGSGTKLEIK		EC50 (VLP-hCLDN6 [6]): 0.52 nM
murine/human chimeric antibody cAb-18 (antibody, V domains shown, also called cAb-1 with G100K) VH: EVKLVESGGGLVKPGGSLKLSCAASGFTFNSYTMSWVRQTPAKRLEWVVTISSGGGRTYYPDSVKGRFTISRDNARNTLYLQMSSLRSEDTAMYYCIRGDYRYDKFAYWGQGTLVTVST VL: DIQMTQSPASLSASVGETVTITCRASENIDSYLAWYQQKQGKSPQLLVYASTLLVDGVPSRFSGSRSGTQFSLKINSLQSEDVARYYCQHYYSIPYTFGSGTKLEIK		EC50 (VLP-hCLDN6 [6]): 0.58 nM
murine/human chimeric antibody cAb-1 (antibody, V domains shown, also called VH0/VL0) VH: EVKLVESGGGLVKPGGSLKLSCAASGFTFNSYTMSWVRQTPAKRLEWVVTISSGGGRTYYPDSVKGRFTISRDNARNTLYLQMSSLRSEDTAMYYCIRGDYRYDGFAYWGQGTLVTVST VL: DIQMTQSPASLSASVGETVTITCRASENIDSYLAWYQQKQGKSPQLLVYASTLLVDGVPSRFSGSRSGTQFSLKINSLQSEDVARYYCQHYYSIPYTFGSGTKLEIK	0.59 nM	EC50 (VLP-hCLDN6 [6]): 0.59 nM
humanized antibody hAb-44 (antibody, V domains shown, also called VH6VL5) VH: EVKLVESGGGLVKPGGSLRLSCAASGFTFNDYTMSWVRQAPGKRLEWVVTISSGGGRTYYPDSVKGRFTISRDNAKNSLYLQMNSLRAEDTAVYYCIRGDYRYDAFAYWGQGTLVTVSS VL: DIQMTQSPSSLSASVGDRVTITCRASENIDSYLAWYQQKPGKSPQLLVYASTLLQDGVPSRFSGSRSGTDFTLTISSLQPEDVATYYCQHYYSIPYTFGSGTKLEIK	6.67 nM	
humanized antibody hAb-49 (antibody, V domains shown, also called VH8VL4) VH: EVQLVESGGGLVKPGGSLRLSCAASGFTFNDYTMSWVRQAPGKRLEWVVTISSGGGRTYYPDSVKGRFTISRDNAKNSLYLQMNSLRAEDTAVYYCIRGDYRYDAFAYWGQGTLVTVSS VL: DIQMTQSPSSLSASVGDRVTITCRASENIDSYLAWYQQKPGKSPQLLVYASTLLVDGVPSRFSGSRSGTQFSLTISSLQPEDVARYYCQHYYSIPYTFGSGTKLEIK	0.07 nM	
humanized antibody hAb-27 (antibody, V domains shown, also called VH2VL4 with HC S31M) VH: EVKLVESGGGLVKPGGSLRLSCAASGFTFNMYTMSWVRQTPAKRLEWVVTISSGGGRTYYPDSVKGRFTISRDNAKNTLYLQMSSLRAEDTAVYYCIRGDYRYDGFAYWGQGTLVTVSS VL: DIQMTQSPSSLSASVGDRVTITCRASENIDSYLAWYQQKPGKSPQLLVYASTLLVDGVPSRFSGSRSGTQFSLTISSLQPEDVARYYCQHYYSIPYTFGSGTKLEIK	0.12 nM	
humanized antibody hAb-30 (antibody, V domains shown, also called VH2VL4 with HC S31E) VH: EVKLVESGGGLVKPGGSLRLSCAASGFTFNEYTMSWVRQTPAKRLEWVVTISSGGGRTYYPDSVKGRFTISRDNAKNTLYLQMSSLRAEDTAVYYCIRGDYRYDGFAYWGQGTLVTVSS VL: DIQMTQSPSSLSASVGDRVTITCRASENIDSYLAWYQQKPGKSPQLLVYASTLLVDGVPSRFSGSRSGTQFSLTISSLQPEDVARYYCQHYYSIPYTFGSGTKLEIK	0.29 nM	
humanized antibody hAb-28 (antibody, V domains shown, also called VH2VL4 with HC S31Q) VH: EVKLVESGGGLVKPGGSLRLSCAASGFTFNQYTMSWVRQTPAKRLEWVVTISSGGGRTYYPDSVKGRFTISRDNAKNTLYLQMSSLRAEDTAVYYCIRGDYRYDGFAYWGQGTLVTVSS VL: DIQMTQSPSSLSASVGDRVTITCRASENIDSYLAWYQQKPGKSPQLLVYASTLLVDGVPSRFSGSRSGTQFSLTISSLQPEDVARYYCQHYYSIPYTFGSGTKLEIK	0.19 nM	
humanized antibody hAb-33 (antibody, V domains shown, also called VH2VL4 with HC G100A) VH: EVKLVESGGGLVKPGGSLRLSCAASGFTFNSYTMSWVRQTPAKRLEWVVTISSGGGRTYYPDSVKGRFTISRDNAKNTLYLQMSSLRAEDTAVYYCIRGDYRYDAFAYWGQGTLVTVSS VL: DIQMTQSPSSLSASVGDRVTITCRASENIDSYLAWYQQKPGKSPQLLVYASTLLVDGVPSRFSGSRSGTQFSLTISSLQPEDVARYYCQHYYSIPYTFGSGTKLEIK	0.31 nM	
humanized antibody hAb-26 (antibody, V domains shown, also called VH2VL4 with HC S31Y) VH: EVKLVESGGGLVKPGGSLRLSCAASGFTFNYYTMSWVRQTPAKRLEWVVTISSGGGRTYYPDSVKGRFTISRDNAKNTLYLQMSSLRAEDTAVYYCIRGDYRYDGFAYWGQGTLVTVSS VL: DIQMTQSPSSLSASVGDRVTITCRASENIDSYLAWYQQKPGKSPQLLVYASTLLVDGVPSRFSGSRSGTQFSLTISSLQPEDVARYYCQHYYSIPYTFGSGTKLEIK	0.1 nM	
humanized antibody hAb-47 (antibody, V domains shown, also called VH6VL4) VH: EVKLVESGGGLVKPGGSLRLSCAASGFTFNDYTMSWVRQAPGKRLEWVVTISSGGGRTYYPDSVKGRFTISRDNAKNSLYLQMNSLRAEDTAVYYCIRGDYRYDAFAYWGQGTLVTVSS VL: DIQMTQSPSSLSASVGDRVTITCRASENIDSYLAWYQQKPGKSPQLLVYASTLLVDGVPSRFSGSRSGTQFSLTISSLQPEDVARYYCQHYYSIPYTFGSGTKLEIK	0.11 nM	
humanized antibody hAb-45 (antibody, V domains shown, also called VH7VL5) VH: EVQLVESGGGLVKPGGSLRLSCAASGFTFNDYTMSWVRQAPGKRLEWVVTISSGGGRTYYPDSVKGRFTISRDNAKNTLYLQMSSLRAEDTAVYYCIRGDYRYDAFAYWGQGTLVTVSS VL: DIQMTQSPSSLSASVGDRVTITCRASENIDSYLAWYQQKPGKSPQLLVYASTLLQDGVPSRFSGSRSGTDFTLTISSLQPEDVATYYCQHYYSIPYTFGSGTKLEIK	4.84 nM	
humanized antibody hAb-46 (antibody, V domains shown, also called VH8VL5) VH: EVQLVESGGGLVKPGGSLRLSCAASGFTFNDYTMSWVRQAPGKRLEWVVTISSGGGRTYYPDSVKGRFTISRDNAKNSLYLQMNSLRAEDTAVYYCIRGDYRYDAFAYWGQGTLVTVSS VL: DIQMTQSPSSLSASVGDRVTITCRASENIDSYLAWYQQKPGKSPQLLVYASTLLQDGVPSRFSGSRSGTDFTLTISSLQPEDVATYYCQHYYSIPYTFGSGTKLEIK	6.55 nM	
humanized antibody hAb-34 (antibody, V domains shown, also called VH2VL4 with HC S31D/G100A) VH: EVKLVESGGGLVKPGGSLRLSCAASGFTFNDYTMSWVRQTPAKRLEWVVTISSGGGRTYYPDSVKGRFTISRDNAKNTLYLQMSSLRAEDTAVYYCIRGDYRYDAFAYWGQGTLVTVSS VL: DIQMTQSPSSLSASVGDRVTITCRASENIDSYLAWYQQKPGKSPQLLVYASTLLVDGVPSRFSGSRSGTQFSLTISSLQPEDVARYYCQHYYSIPYTFGSGTKLEIK	0.89 nM	
murine/human chimeric antibody cAb-3 (antibody, V domains shown, also called cAb-1 with S31D) VH: EVKLVESGGGLVKPGGSLKLSCAASGFTFNDYTMSWVRQTPAKRLEWVVTISSGGGRTYYPDSVKGRFTISRDNARNTLYLQMSSLRSEDTAMYYCIRGDYRYDGFAYWGQGTLVTVST VL: DIQMTQSPASLSASVGETVTITCRASENIDSYLAWYQQKQGKSPQLLVYASTLLVDGVPSRFSGSRSGTQFSLKINSLQSEDVARYYCQHYYSIPYTFGSGTKLEIK		EC50 (VLP-hCLDN6 [6]): 0.26 nM
humanized antibody hAb-48 (antibody, V domains shown, also called VH7VL4) VH: EVQLVESGGGLVKPGGSLRLSCAASGFTFNDYTMSWVRQAPGKRLEWVVTISSGGGRTYYPDSVKGRFTISRDNAKNTLYLQMSSLRAEDTAVYYCIRGDYRYDAFAYWGQGTLVTVSS VL: DIQMTQSPSSLSASVGDRVTITCRASENIDSYLAWYQQKPGKSPQLLVYASTLLVDGVPSRFSGSRSGTQFSLTISSLQPEDVARYYCQHYYSIPYTFGSGTKLEIK	0.13 nM	
